Here are results for 23 molecules from PMC6555819, “Comprehensive study of nuclear receptor DNA binding provides a revised framework for understanding receptor specificity”.

The target of one data set is RARb:RXRa (Homo sapiens, UniProt P10826;P19793 full;full). Description: no ligand; PBM; 270 nM : 90 nM RXRa; PBS pH 7.4, 2% milk, 0.02% Triton X-100, 1 mM DTT, BSA, 0.4 mg/ml salmon testes DNA. Conditions: tags: His kept;His cleaved; copies: 1;1; label: surface-attached array probe. In outline:
(§1)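 Ligand-free nuclear receptor dimers were bound for 1 h to custom Agilent 4×180K protein-binding microarrays. Detection used antibodies against each partner (one per run). Binding z-scores rest on regression-normalized fluorescence, with random background probes as the reference.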

Another data set deals with LXRb:RXRa (Homo sapiens, UniProt P55055;P19793 full;full). The description is as above. Conditions: tags: His kept;His cleaved; copies: 1;1; label: surface-attached array probe. In outline: as §1
The target in another data set is RXRa (Homo sapiens, UniProt P19793). Description: no ligand; PBM; 180 nM; PBS pH 7.4, 2% milk, 0.02% Triton X-100, 1 mM DTT, BSA, 0.4 mg/ml salmon testes DNA. Conditions: tags: His cleaved; chain copies: 2; label: surface-attached array probe.
The next data set addresses VDR:RXRa (Homo sapiens, UniProt P11473;P19793 full;full). Description: no ligand; PBM; 270 nM : 90 nM RXRa; PBS pH 7.4, 2% milk, 0.02% Triton X-100, 1 mM DTT, BSA, 0.4 mg/ml salmon testes DNA. Conditions: tags: His kept;His cleaved; copies: 1;1; label: surface-attached array probe. In outline:
as §1

In a further data set the target is PPARa:RXRa (Homo sapiens, UniProt Q07869;P19793 full;full). Described as above. Conditions: tags: GST kept;His cleaved; copies: 1;1; label: surface-attached array probe. In outline: as §1
The target in the next data set is FXR:RXRa (Homo sapiens, UniProt Q96RI1;P19793 full;full). Described as above. Conditions: tags: His kept;His cleaved; copies: 1;1; label: surface-attached array probe. The procedure, abridged:
as §1

A further data set has as its target RARg:RXRa (Homo sapiens, UniProt P13631;P19793 full;full). The description is as above. Conditions: tags: His kept;His cleaved; copies: 1;1; label: surface-attached array probe. The procedure, abridged: as §1

Sequence of PPARa:RXRa (Q07869 whole entry, chain 1 of 2): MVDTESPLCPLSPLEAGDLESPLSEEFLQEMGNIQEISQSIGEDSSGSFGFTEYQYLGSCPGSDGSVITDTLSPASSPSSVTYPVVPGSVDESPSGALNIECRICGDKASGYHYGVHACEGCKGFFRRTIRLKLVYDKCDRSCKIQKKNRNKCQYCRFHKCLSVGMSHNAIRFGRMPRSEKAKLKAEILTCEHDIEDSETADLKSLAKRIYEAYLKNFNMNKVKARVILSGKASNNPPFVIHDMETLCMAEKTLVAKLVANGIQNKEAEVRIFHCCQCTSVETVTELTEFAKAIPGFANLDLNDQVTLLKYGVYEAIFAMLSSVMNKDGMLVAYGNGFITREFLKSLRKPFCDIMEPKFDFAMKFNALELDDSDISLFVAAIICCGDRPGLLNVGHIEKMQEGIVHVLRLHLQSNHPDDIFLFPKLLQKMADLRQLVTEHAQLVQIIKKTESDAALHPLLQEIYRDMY
Sequence of PPARa:RXRa (P19793 whole entry, chain 2 of 2): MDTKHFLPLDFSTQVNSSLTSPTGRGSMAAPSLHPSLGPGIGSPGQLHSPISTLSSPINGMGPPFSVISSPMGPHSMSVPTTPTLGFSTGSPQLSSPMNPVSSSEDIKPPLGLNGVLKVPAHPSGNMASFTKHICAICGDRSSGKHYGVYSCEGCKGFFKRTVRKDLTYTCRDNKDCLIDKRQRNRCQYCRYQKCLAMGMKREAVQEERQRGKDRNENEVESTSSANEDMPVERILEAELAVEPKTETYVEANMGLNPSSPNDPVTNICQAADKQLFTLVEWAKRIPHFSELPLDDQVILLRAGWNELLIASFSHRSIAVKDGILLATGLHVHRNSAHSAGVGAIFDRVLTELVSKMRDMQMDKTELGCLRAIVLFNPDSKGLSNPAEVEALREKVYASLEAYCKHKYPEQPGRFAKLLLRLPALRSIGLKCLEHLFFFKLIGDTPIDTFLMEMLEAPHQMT
Sequence of VDR:RXRa (P11473 whole entry, chain 1 of 2): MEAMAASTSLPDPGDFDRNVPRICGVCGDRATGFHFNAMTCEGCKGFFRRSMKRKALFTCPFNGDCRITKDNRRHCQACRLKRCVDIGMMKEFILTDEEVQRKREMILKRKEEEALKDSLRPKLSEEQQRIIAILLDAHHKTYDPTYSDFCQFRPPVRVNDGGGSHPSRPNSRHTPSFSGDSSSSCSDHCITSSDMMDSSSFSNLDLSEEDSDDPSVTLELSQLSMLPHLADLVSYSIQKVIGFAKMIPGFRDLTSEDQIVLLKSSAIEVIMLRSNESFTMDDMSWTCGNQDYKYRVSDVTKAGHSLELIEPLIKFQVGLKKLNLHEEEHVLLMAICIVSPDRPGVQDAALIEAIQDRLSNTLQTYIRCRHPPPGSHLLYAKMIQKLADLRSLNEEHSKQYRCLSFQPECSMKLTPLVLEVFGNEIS
Sequence of VDR:RXRa (P19793 whole entry, chain 2 of 2): as the sequence (P19793 whole entry, chain 2 of 2) above
Sequence of FXR:RXRa (Q96RI1 whole entry, chain 1 of 2): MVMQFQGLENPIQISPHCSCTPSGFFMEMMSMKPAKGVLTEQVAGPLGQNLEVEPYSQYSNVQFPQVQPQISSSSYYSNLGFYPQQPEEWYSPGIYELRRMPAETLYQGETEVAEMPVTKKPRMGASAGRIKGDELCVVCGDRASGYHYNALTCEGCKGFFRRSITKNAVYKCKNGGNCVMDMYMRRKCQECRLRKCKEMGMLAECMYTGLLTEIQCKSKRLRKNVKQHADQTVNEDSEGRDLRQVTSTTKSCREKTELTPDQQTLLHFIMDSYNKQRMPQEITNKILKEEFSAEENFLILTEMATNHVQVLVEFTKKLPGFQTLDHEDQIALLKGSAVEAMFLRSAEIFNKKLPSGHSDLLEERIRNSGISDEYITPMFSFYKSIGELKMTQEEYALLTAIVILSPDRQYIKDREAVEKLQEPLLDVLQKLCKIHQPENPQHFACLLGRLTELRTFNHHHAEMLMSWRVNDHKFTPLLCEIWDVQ
Sequence of FXR:RXRa (P19793 whole entry, chain 2 of 2): as the sequence (P19793 whole entry, chain 2 of 2) above
Sequence of RXRa (P19793 whole entry): as the sequence (P19793 whole entry, chain 2 of 2) above
Sequence of RARg:RXRa (P13631 whole entry, chain 1 of 2): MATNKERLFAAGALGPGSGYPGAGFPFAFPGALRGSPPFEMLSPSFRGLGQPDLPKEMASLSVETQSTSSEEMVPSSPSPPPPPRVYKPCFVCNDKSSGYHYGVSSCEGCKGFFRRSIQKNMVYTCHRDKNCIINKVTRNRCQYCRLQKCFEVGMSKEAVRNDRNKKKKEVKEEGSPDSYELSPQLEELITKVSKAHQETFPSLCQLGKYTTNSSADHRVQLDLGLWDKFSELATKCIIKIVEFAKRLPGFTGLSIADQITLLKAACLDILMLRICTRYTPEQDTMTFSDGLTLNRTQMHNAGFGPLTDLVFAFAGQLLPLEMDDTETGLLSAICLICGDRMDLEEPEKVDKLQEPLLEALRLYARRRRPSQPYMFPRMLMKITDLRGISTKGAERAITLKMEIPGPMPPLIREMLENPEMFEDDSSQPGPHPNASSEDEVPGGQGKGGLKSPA
Sequence of RARg:RXRa (P19793 whole entry, chain 2 of 2): as the sequence (P19793 whole entry, chain 2 of 2) above
Sequence of RARb:RXRa (P10826 whole entry, chain 1 of 2): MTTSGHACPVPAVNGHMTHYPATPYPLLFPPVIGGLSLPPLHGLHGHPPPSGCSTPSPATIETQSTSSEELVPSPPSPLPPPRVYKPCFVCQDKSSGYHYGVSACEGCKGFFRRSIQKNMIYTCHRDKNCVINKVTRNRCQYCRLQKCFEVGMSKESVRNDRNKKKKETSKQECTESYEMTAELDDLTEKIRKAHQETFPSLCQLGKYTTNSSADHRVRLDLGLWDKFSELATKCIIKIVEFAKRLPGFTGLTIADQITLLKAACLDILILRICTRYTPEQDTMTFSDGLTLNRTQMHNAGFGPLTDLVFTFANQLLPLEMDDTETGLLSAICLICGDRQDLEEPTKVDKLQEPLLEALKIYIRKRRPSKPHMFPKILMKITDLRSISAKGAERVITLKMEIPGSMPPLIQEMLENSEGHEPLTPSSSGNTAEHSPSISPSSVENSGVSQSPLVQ
Sequence of RARb:RXRa (P19793 whole entry, chain 2 of 2): as the sequence (P19793 whole entry, chain 2 of 2) above
Sequence of LXRb:RXRa (P55055 whole entry, chain 1 of 2): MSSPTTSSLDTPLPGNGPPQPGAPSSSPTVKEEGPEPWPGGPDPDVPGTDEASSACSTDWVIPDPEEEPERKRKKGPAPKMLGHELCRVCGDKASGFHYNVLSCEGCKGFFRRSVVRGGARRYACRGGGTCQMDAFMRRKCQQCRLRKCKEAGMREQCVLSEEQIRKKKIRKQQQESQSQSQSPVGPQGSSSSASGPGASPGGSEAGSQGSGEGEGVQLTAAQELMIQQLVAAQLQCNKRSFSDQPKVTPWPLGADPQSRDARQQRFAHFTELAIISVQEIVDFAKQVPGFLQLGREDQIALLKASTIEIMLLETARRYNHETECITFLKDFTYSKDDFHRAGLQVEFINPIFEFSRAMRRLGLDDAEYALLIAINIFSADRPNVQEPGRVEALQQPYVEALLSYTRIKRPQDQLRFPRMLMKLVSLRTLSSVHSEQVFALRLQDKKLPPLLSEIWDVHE
Sequence of LXRb:RXRa (P19793 whole entry, chain 2 of 2): as the sequence (P19793 whole entry, chain 2 of 2) above

B1: NRC3_random_hg19_18_o1 (dsDNA)
DNA 1: GCATACACTTCTGGAGGCCAGAGGTCTGAAATCAAGGCGATTGACAGCGTAGAATGAAGG
DNA 2: CCTTCATTCTACGCTGTCAATCGCCTTGATTTCAGACCTCTGGCCTCCAGAAGTGTATGC
As to B1, the binding signal with RARb:RXRa was 0.42 PBM z-score against 500 random probes; with LXRb:RXRa, -0.22 PBM z-score against 500 random probes.

B2: NRC3_random_hg19_348_o1 (dsDNA)
DNA 1: GCGGAGCAGTCTGCTTTCACGCAGCCTGCTGGGCACGCGATTGACAGCGTAGAATGAAGG
DNA 2: CCTTCATTCTACGCTGTCAATCGCGTGCCCAGCAGGCTGCGTGAAAGCAGACTGCTCCGC
B2: the binding signal in the data set with RARb:RXRa is -2.02 PBM z-score against 500 random probes; in the data set with LXRb:RXRa, -1.82 PBM z-score against 500 random probes.

B3: NRC3_wobSeed29_DR1_T22A_o1 (dsDNA)
DNA 1: GCGCTTACGGGTCAAAGGTTAAAGCATGAATAGAATGCGATTGACAGCGTAGAATGAAGG
DNA 2: CCTTCATTCTACGCTGTCAATCGCATTCTATTCATGCTTTAACCTTTGACCCGTAAGCGC
Turning to B3, the binding signal with LXRb:RXRa was 6.19 PBM z-score against 500 random probes; in the data set with RXRa, 10 PBM z-score against 500 random probes.

B4: NRC3_wobSeed86_DR3_o1 (dsDNA)
DNA 1: GCGCTGCTAGGTCAGGTTGGTCAGCTAACGGGTACGGCGATTGACAGCGTAGAATGAAGG
DNA 2: CCTTCATTCTACGCTGTCAATCGCCGTACCCGTTAGCTGACCAACCTGACCTAGCAGCGC
With B4, the results for the binding signal in the data set with VDR:RXRa and with LXRb:RXRa were 0.5 PBM z-score against 500 random probes and 0.46 PBM z-score against 500 random probes, respectively.

B5: NRC3_random_hg19_43_o1 (dsDNA)
DNA 1: GCAGGACCTCTTCAAGGAGAACTACAAACCACTGCTGCGATTGACAGCGTAGAATGAAGG
DNA 2: CCTTCATTCTACGCTGTCAATCGCAGCAGTGGTTTGTAGTTCTCCTTGAAGAGGTCCTGC
With B5, the binding signal with PPARa:RXRa is -0.17 PBM z-score against 500 random probes; with RARb:RXRa, -0.5 PBM z-score against 500 random probes; with LXRb:RXRa it was -0.03 PBM z-score against 500 random probes.

B6: NRC3_random_hg19_352_o1 (dsDNA)
DNA 1: GCGAGATGCAGCCAACCTGTAGAGATCCTGTGGAGAGCGATTGACAGCGTAGAATGAAGG
DNA 2: CCTTCATTCTACGCTGTCAATCGCTCTCCACAGGATCTCTACAGGTTGGCTGCATCTCGC
With B6, the binding signal is -0.6 PBM z-score against 500 random probes with PPARa:RXRa, -0.39 PBM z-score against 500 random probes with FXR:RXRa, -0.52 PBM z-score against 500 random probes with RARg:RXRa and -0.67 PBM z-score against 500 random probes with LXRb:RXRa.

B7: NRC3_wobSeed21_DR0_C21T_o1 (dsDNA)
DNA 1: GCCGTCAAAGTTCAAGGTAATGTAACAGAAAGCAGCGCGATTGACAGCGTAGAATGAAGG
DNA 2: CCTTCATTCTACGCTGTCAATCGCGCTGCTTTCTGTTACATTACCTTGAACTTTGACGGC
As for B7, the values for the binding signal with VDR:RXRa and with LXRb:RXRa were 3.72 PBM z-score against 500 random probes and 3.22 PBM z-score against 500 random probes, respectively.

B8: NRC3_random_hg19_165_o1 (dsDNA)
DNA 1: GCTGAGTCCCTGCACTAGTCGGTTTGAGCTGCTTGTGCGATTGACAGCGTAGAATGAAGG
DNA 2: CCTTCATTCTACGCTGTCAATCGCACAAGCAGCTCAAACCGACTAGTGCAGGGACTCAGC
In the case of B8, the binding signal was -0.66 PBM z-score against 500 random probes with LXRb:RXRa and -1.2 PBM z-score against 500 random probes with RXRa.

B9: NRC3_random_hg19_480_o1 (dsDNA)
DNA 1: GCGAGAATGGTCAGTACATTCAACCATGAATTCAAGGCGATTGACAGCGTAGAATGAAGG
DNA 2: CCTTCATTCTACGCTGTCAATCGCCTTGAATTCATGGTTGAATGTACTGACCATTCTCGC
Regarding B9, the binding signal is 0.03 PBM z-score against 500 random probes with VDR:RXRa and -0.32 PBM z-score against 500 random probes with LXRb:RXRa.

B10: NRC3_random_hg19_495_o1 (dsDNA)
DNA 1: GCGCACCATCTGTGAGAAAGTAGCCCTTCACCAAACGCGATTGACAGCGTAGAATGAAGG
DNA 2: CCTTCATTCTACGCTGTCAATCGCGTTTGGTGAAGGGCTACTTTCTCACAGATGGTGCGC
Turning to B10, the binding signal was -0.51 PBM z-score against 500 random probes with FXR:RXRa and -0.24 PBM z-score against 500 random probes in the data set with LXRb:RXRa.

B11: NRC3_wobSeed37_DR1_T23C_o1 (dsDNA)
DNA 1: GCCGTCCAAGGTCAAAGGTCAGCGAAGAGATGACGGGCGATTGACAGCGTAGAATGAAGG
DNA 2: CCTTCATTCTACGCTGTCAATCGCCCGTCATCTCTTCGCTGACCTTTGACCTTGGACGGC
For B11, the binding signal with RARb:RXRa is 6.23 PBM z-score against 500 random probes; in the data set with LXRb:RXRa, 7.14 PBM z-score against 500 random probes.

B12: NRC3_wobSeed74_DR3_T21G_o1 (dsDNA)
DNA 1: GCTCTAGTTGGTCACGGAGGGCACACACGACGGGTAGCGATTGACAGCGTAGAATGAAGG
DNA 2: CCTTCATTCTACGCTGTCAATCGCTACCCGTCGTGTGTGCCCTCCGTGACCAACTAGAGC
In the case of B12, the binding signal with FXR:RXRa is 0.34 PBM z-score against 500 random probes; in the data set with LXRb:RXRa, 0.5 PBM z-score against 500 random probes.

B13: NRC3_wobSeed27_DR1_G24A_o1 (dsDNA)
DNA 1: GCACTCGGAGGACAAAGGTCAGAACTACGCCAGTGAGCGATTGACAGCGTAGAATGAAGG
DNA 2: CCTTCATTCTACGCTGTCAATCGCTCACTGGCGTAGTTCTGACCTTTGTCCTCCGAGTGC
Consider B13, for which the binding signal was 3.2 PBM z-score against 500 random probes in the data set with VDR:RXRa and 3.26 PBM z-score against 500 random probes with LXRb:RXRa.

B14: NRC3_random_hg19_373_o1 (dsDNA)
DNA 1: GCTGCCACAGAGGATACTGTGACGTTATGCATCACTGCGATTGACAGCGTAGAATGAAGG
DNA 2: CCTTCATTCTACGCTGTCAATCGCAGTGATGCATAACGTCACAGTATCCTCTGTGGCAGC
With B14, the figures for the binding signal with VDR:RXRa and in the data set with LXRb:RXRa were -0.23 PBM z-score against 500 random probes and -0.59 PBM z-score against 500 random probes, respectively.

B15: NRC3_wobSeed130_DR5_T12G_o1 (dsDNA)
DNA 1: GCCTCGAAAGGGCGTGCTCAGGTGAGTATACCAAACGCGATTGACAGCGTAGAATGAAGG
DNA 2: CCTTCATTCTACGCTGTCAATCGCGTTTGGTATACTCACCTGAGCACGCCCTTTCGAGGC
As for B15, the results for the binding signal with LXRb:RXRa and with RXRa were 0.29 PBM z-score against 500 random probes and 0.33 PBM z-score against 500 random probes, respectively.

B16: NRC3_wobSeed10_DR0_G17T_o1 (dsDNA)
DNA 1: GCATCGAAAGGTCGAGTTGAGTATAGAGAAAGGGAAGCGATTGACAGCGTAGAATGAAGG
DNA 2: CCTTCATTCTACGCTGTCAATCGCTTCCCTTTCTCTATACTCAACTCGACCTTTCGATGC
With B16, the binding signal with LXRb:RXRa is 3.11 PBM z-score against 500 random probes; with RXRa it was 4.1 PBM z-score against 500 random probes.

B17: NRC3_wobSeed45_DR1_A14T_o1 (dsDNA)
DNA 1: GCTGTCAAAGTTCTAAGGTAACGTAAGTATCCACACGCGATTGACAGCGTAGAATGAAGG
DNA 2: CCTTCATTCTACGCTGTCAATCGCGTGTGGATACTTACGTTACCTTAGAACTTTGACAGC
B17: the figures for the binding signal in the data set with RARg:RXRa, in the data set with LXRb:RXRa and with RXRa were 0.41 PBM z-score against 500 random probes, 0.4 PBM z-score against 500 random probes and 0.38 PBM z-score against 500 random probes, respectively.

B18: NRC3_wobSeed98_DR4_C23A_o1 (dsDNA)
DNA 1: GCACTAGTTGGTCAGCTGAGGTAACACACAATTCGGGCGATTGACAGCGTAGAATGAAGG
DNA 2: CCTTCATTCTACGCTGTCAATCGCCCGAATTGTGTGTTACCTCAGCTGACCAACTAGTGC
Consider B18, for which the values for the binding signal with LXRb:RXRa and in the data set with RXRa were 0.34 PBM z-score against 500 random probes and 0.48 PBM z-score against 500 random probes, respectively.

B19: NRC3_random_hg19_100_o1 (dsDNA)
DNA 1: GCGAGTTTGAGACCAGCCTGGCCAACATGGCAAGAGGCGATTGACAGCGTAGAATGAAGG
DNA 2: CCTTCATTCTACGCTGTCAATCGCCTCTTGCCATGTTGGCCAGGCTGGTCTCAAACTCGC
B19: the binding signal was -0.7 PBM z-score against 500 random probes in the data set with FXR:RXRa and -1.11 PBM z-score against 500 random probes with LXRb:RXRa.

B20: NRC3_random_hg19_262_o1 (dsDNA)
DNA 1: GCGACTAATGCTTACCTTTAGAAAGTGCAAGTGAATGCGATTGACAGCGTAGAATGAAGG
DNA 2: CCTTCATTCTACGCTGTCAATCGCATTCACTTGCACTTTCTAAAGGTAAGCATTAGTCGC
As to B20, the binding signal was 0.36 PBM z-score against 500 random probes with PPARa:RXRa, 0.19 PBM z-score against 500 random probes with FXR:RXRa and 0.24 PBM z-score against 500 random probes with LXRb:RXRa.

B21: NRC3_wobSeed100_DR4_T22G_o1 (dsDNA)
DNA 1: GCCCTACTGGGCCACGAAAGGGCATTGATTCAGTGAGCGATTGACAGCGTAGAATGAAGG
DNA 2: CCTTCATTCTACGCTGTCAATCGCTCACTGAATCAATGCCCTTTCGTGGCCCAGTAGGGC
For the molecule B21, the binding signal was 0.11 PBM z-score against 500 random probes in the data set with VDR:RXRa and 0.15 PBM z-score against 500 random probes with LXRb:RXRa.

B22: NRC3_random_hg19_225_o1 (dsDNA)
DNA 1: GCTGGATGAAGTGGAAGAACAAGGCTATTCTTTACTGCGATTGACAGCGTAGAATGAAGG
DNA 2: CCTTCATTCTACGCTGTCAATCGCAGTAAAGAATAGCCTTGTTCTTCCACTTCATCCAGC
With B22, the values for the binding signal in the data set with RARg:RXRa, with LXRb:RXRa and in the data set with RXRa were 0.01 PBM z-score against 500 random probes, -0.34 PBM z-score against 500 random probes and -0.39 PBM z-score against 500 random probes, respectively.

B23: NRC3_random_hg19_183_o1 (dsDNA)
DNA 1: GCGAGGACAGAGTAGATCAACCTTTCCTACCTCTAAGCGATTGACAGCGTAGAATGAAGG
DNA 2: CCTTCATTCTACGCTGTCAATCGCTTAGAGGTAGGAAAGGTTGATCTACTCTGTCCTCGC
As for B23, the binding signal in the data set with VDR:RXRa was 0.02 PBM z-score against 500 random probes; with LXRb:RXRa, -0.11 PBM z-score against 500 random probes.
